Experimental data published in IntAct's records for PubMed 16754960.

B1: Ras-related protein Rab-21 (Mus musculus), P35282 (parent)
chain: MAAAGGGAAAAAGRAYSFKVVLLGEGCVGKTSLVLRYCENKFNDKHITTLQASFLTKKLNIGGKRVNLAIWDTAGQERFHALGPIYYRDSNGAILVYDVTDEDSFQKVKNWVKELRKMLGNEICLCIVGNKIDLEKERHVSIQEAESYAESVGAKHYHTSAKQNKGIEELFLDLCKRMIETAQVDERAKGNGSSQAGAARRGVQIIDDEPQAQSSGGCCSSG

Experiments:
itb1_human ITGB1, P05556 [1] = variants of: B1; conditions: with itb1_human ITGB1, P05556
ita2_human ITGA2, P17301 = variants of: B1; conditions: with ita2_human ITGA2, P17301
itb1_human ITGB1, P05556 [2] = variants of: B1; conditions: with itb1_human ITGB1, P05556; remark: listed apart in the source

itb1_human ITGB1, P05556, sequence (P05556 whole entry): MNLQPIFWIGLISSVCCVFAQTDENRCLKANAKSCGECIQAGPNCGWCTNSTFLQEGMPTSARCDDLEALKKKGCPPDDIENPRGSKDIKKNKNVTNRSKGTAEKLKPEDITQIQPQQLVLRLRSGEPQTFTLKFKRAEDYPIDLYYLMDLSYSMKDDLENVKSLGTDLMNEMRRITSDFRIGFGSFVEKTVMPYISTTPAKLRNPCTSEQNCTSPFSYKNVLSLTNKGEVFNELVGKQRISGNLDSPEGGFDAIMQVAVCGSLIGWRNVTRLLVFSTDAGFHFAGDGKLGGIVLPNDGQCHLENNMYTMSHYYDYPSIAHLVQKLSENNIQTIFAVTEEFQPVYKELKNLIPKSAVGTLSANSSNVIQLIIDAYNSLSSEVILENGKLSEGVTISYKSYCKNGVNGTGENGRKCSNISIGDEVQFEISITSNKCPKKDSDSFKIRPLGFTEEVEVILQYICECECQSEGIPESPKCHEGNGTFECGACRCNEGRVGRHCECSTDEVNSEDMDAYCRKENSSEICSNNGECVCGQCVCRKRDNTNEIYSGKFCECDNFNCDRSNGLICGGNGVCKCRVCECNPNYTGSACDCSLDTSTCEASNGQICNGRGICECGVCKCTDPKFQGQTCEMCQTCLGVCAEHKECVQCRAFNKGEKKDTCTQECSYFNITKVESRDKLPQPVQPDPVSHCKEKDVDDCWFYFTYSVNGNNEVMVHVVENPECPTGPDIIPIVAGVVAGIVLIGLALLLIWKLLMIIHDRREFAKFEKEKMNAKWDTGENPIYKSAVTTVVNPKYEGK
ita2_human ITGA2, P17301, sequence (P17301 whole entry): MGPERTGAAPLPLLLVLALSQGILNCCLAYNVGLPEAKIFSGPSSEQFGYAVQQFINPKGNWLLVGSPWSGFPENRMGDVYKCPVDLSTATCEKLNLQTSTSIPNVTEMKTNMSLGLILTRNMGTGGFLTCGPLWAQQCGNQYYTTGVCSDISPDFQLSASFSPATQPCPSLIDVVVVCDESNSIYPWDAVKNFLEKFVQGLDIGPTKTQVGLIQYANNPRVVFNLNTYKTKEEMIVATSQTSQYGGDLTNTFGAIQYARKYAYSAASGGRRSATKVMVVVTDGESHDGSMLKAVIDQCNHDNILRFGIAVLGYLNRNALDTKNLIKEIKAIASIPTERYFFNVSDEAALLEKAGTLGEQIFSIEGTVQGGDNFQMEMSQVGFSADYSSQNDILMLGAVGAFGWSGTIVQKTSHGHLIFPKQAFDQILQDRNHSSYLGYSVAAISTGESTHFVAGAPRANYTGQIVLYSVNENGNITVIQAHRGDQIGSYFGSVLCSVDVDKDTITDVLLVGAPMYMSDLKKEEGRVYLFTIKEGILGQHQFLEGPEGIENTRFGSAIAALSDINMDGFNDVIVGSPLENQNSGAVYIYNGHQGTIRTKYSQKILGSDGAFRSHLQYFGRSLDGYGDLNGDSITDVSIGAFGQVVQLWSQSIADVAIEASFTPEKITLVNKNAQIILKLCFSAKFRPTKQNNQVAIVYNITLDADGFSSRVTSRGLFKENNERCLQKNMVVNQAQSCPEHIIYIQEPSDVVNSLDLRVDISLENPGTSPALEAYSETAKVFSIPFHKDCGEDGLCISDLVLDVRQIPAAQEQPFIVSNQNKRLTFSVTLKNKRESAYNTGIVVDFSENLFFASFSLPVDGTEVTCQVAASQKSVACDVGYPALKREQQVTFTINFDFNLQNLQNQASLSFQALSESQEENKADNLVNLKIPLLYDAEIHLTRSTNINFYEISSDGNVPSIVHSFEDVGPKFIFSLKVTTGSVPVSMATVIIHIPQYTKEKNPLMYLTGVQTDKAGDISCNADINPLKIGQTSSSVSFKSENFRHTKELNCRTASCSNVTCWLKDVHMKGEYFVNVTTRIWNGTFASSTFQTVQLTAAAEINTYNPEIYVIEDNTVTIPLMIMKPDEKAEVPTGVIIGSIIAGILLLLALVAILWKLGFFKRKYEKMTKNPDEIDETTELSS

Variant | effect of a mutation on the interaction (itb1_human ITGB1, P05556 [1]) | effect of a mutation on the interaction (ita2_human ITGA2, P17301) | effect of a mutation on the interaction (itb1_human ITGB1, P05556 [2])
Q76L | increasing interaction | increasing interaction | 
T31N |  | decreasing interaction | decreasing interaction
